Experimental data reported in publication PMC13544220, “Glycemic and bodyweight effects of GIPR coding variation reflect differences in surface expression and intrinsic functional impairment” (Science Advances, 2026).

Columns and labels:
Assay type in all cases: cell-based, human
[1] = test system: wild-type and variant SNAP-GIPR; assay: Surface SNAP-GIPR expression (SNAP-tag labelling) in AD293 cells; details: for AD293 Surface: Fig S3E, mean; for Surface SNAP-GIPR expression: sheet Fig 1C;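 on all read-outs here: scaled to the experimental average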
How it was run: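 Surface GIPR is quantified from wide-field images after labelling intact transfected cells with a membrane-impermeant SNAP probe at 500 nM for 10 min at room temperature. Specific signal, corrected for nontransfected cells, is normalized to the experiment-wide average or to wild-type.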

[2] = test system: wild-type and variant SNAP-GIPR; assay: Surface SNAP-GIPR expression (SNAP-tag labelling) in INS-1 cells; details: Fig 4G; Mean
Method: Twenty-four hours before the experiment, AD293 or INS-1 cells were reverse transfected with GIPR variant or wild-type plasmids using Lipofectamine 2000 in 96-well, clear-bottom, black microplates precoated with poly-D-lysine. All variants were tested in parallel on each occasion to control for transfection efficiency differences between experiments. Cells were then labeled using the cell-impermeant probe SNAP-Surface Alexa Fluor 647 (500 nM, New England Biolabs, USA) for 10 min at room temperature to label only surface GIPR. […] Several fields of view (FOVs) were acquired within each well using a 20X, 0.75–numerical aperture (NA) air objective. Surface GIPR fluorescence was quantified after flat-field correction using BaSiC ([72]) and segmenting using Phantast ([73]), which generates a mask based on the phase contrast images to demarcate cell versus noncell. Wide-field imaging of the surface-specific labeling achieved by SNAP-Surface probes means that surface expression can be established from whole-cell fluorescence, after subtracting nonspecific fluorescence from a separate well containing nontransfected cells processed in parallel from the same experiment. Data were normalized by dividing by the average specific signal across each experiment, or by the wild-type value, as indicated in the figure legends.

[3] = test system: wild-type and variant SNAP-GIPR; assay: Single-concentration GIP cAMP response by HTRF in AD293 cells; details: Fig S3F, HTRF, mean;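 further: ratio to experiment-wide average response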
Method: (§1) All variants were tested in parallel on each occasion to control for transfection efficiency differences between experiments.

[4] = test system: wild-type and variant SNAP-GIPR; assay: Single-concentration GIP cAMP response by HTRF in INS-1 cells; details: Fig S3E, mean
Method: as §1

[5] = test system: wild-type and variant SNAP-GIPR; assay: cADDis cAMP imaging in AD293 cells, ensemble, expression-matched and per decile; details: Fig S3F, cADDis, mean
Method: AD293 cells were reverse transfected with the GIPR variant or wild-type plasmids using Lipofectamine 2000 and cotransduced with the cADDis Green Up BacMam (10 μl per well, Montana Molecular, USA), in 96-well, poly-D-lysine–coated microplates. All variants were tested in parallel on each occasion to control for transfection efficiency differences between experiments. After 24 hours, cells were labeled using 500 nM SNAP-Surface Alexa Fluor 647 for 10 min at room temperature. Cells were washed three times and then imaged in KRBH buffer containing 6 mM glucose and 0.1% BSA. Imaging was performed at 37°C by wide-field microscopy using the same microscope as in the “Assessment of surface GIPR expression by SNAP-tag labeling in cell lines” section, with 9 FOVs for both cADDis and SNAP-Surface fluorescence acquired from each well using a 10X, 0.45 NA air objective. […] Flat-field correction was performed using BaSiC ([72]), drift correction was performed using SIFT, and a maximum intensity projection of the cADDis channel was used to segment individual cells. cAMP responses were determined by quantifying the cADDis fluorescence intensity for each cell at each time point. Nonviable cells or noncell objects were excluded according to criteria for allowable cell IBMX/FSK responses. […] The cADDis mask was then used to quantify the SNAP-Surface signal from each cell. Wild-type SNAP-Surface readings were split into deciles, and these deciles were subsequently used to categorize variant-transfected cells to match against the wild type. After trimming the top and bottom deciles, the mean was taken of each decile mean for surface expression level or cAMP response, which achieved matched expression levels by effectively applying an inverse weighting to counteract differences in cell number in each decile for different variants. Ensemble expression levels or cAMP responses were calculated without regard to deciles. Variant cADDis responses were also analyzed within their own surface expression deciles.

[6] = test system: wild-type and variant SNAP-GIPR; assay: Constitutive and agonist-mediated internalization, reversible SNAP-tag labelling, AD293 cells; design: key to Internalisation, Vehicle / Internalisation, +GIP / Internalisation, GIP-only: % internalization: residual fluorescence after Mesna vs pre-Mesna; Surface expression: unit not given here; details: Mean
Method: (§2) Twenty-four hours before the experiment, AD293 or INS-1 cells were reverse transfected with GIPR variant or wild-type plasmids using Lipofectamine 2000 in 96-well, clear-bottom, black microplates precoated with poly-D-lysine. All variants were tested in parallel on each occasion to control for transfection efficiency differences between experiments. […] Media were then removed, cells washed with PBS and then placed in TNE buffer (pH 8.6) for imaging. […] After 10 min, the well was reimaged again to detect remaining fluorescence from internalized GIPR. Images were analyzed as in the “Assessment of surface GIPR expression by SNAP-tag labeling in cell lines” section, with the residual specific fluorescence after Mesna treatment expressed relative to the pre-Mesna value to establish percentage internalization.

[7] = test system: wild-type and variant SNAP-GIPR; assay: Constitutive and agonist-mediated internalization, reversible SNAP-tag labelling, INS-1 cells; design: key to Internalisation, GIP-only / Internalisation, Vehicle / Internalisation, +GIP: % internalization: residual fluorescence after Mesna vs pre-Mesna; details: Mean
Method: as §2

B1: T116R (protein, UniProt P48546 22-466, looked up, variant T116R)
Gastric inhibitory …: RAETGSKGQTAGELYQRWERYRRECQETLAAAEPPSGLACNGSFDMYVCWDYAAPNATARASCPWYLPWHHHVAAGFVLRQCGSDGQWGLWRDHRQCENPEKNEAFLDQRLILERLQVMYTVGYSLSLATLLLALLILSLFRRLHCTRNYIHINLFTSFMLRAAAILSRDRLLPRPGPYLGDQALALWNQALAACRTAQIVTQYCVGANYTWLLVEGVYLHSLLVLVGGSEEGHFRYYLLLGWGAPALFVIPWVIVRYLYENTQCWERNEVKAIWWIIRTPILMTILINFLIFIRILGILLSKLRTRQMRCRDYRLRLARSTLTLVPLLGVHEVVFAPVTEEQARGALRFAKLGFEIFLSSFQGFLVSVLYCFINKEVQSEIRRGWHHCRLRRSLGEEQRQLPERAFRALPSGSGPGEVPTSRGLSSGTLPGPGNEASRELESYC
- AD293 Surface ([1]; column repeated, paired with cAMP 100 nM): 1.324
- AD293 Surface ([1]; paired with cAMP 100 pM): 1.324
- Surface SNAP-GIPR expression ([1]; replicate 1): 1.245
- Surface SNAP-GIPR expression ([1]; replicate 2): 1.023
- Surface SNAP-GIPR expression ([1]; replicate 3): 0.6735
- Surface SNAP-GIPR expression ([1]; replicate 4): 1.28
- Surface SNAP-GIPR expression ([1]; replicate 5): 0.9777
- Surface SNAP-GIPR expression ([1]; replicate 6): 1.324
- Surface SNAP-GIPR expression ([1]; replicate 7): 1.095
- Surface SNAP-GIPR expression ([1]; replicate 8): 1.165
- Surface SNAP-GIPR expression ([1]; replicate 9): 1.067
- Surface SNAP-GIPR expression ([1]; replicate 10): 1.216
- Surface SNAP-GIPR expression ([1]; replicate 11): 0.8978
- Surface SNAP-GIPR expression ([1]; replicate 12): 1.007
- Surface SNAP-GIPR expression ([1]; replicate 13): 1.293
- Surface SNAP-GIPR expression ([1]; replicate 14): 1.058
- Surface SNAP-GIPR expression ([1]; replicate 15): 1.321
- Surface SNAP-GIPR expression ([1]; replicate 16): 1.079
- Surface SNAP-GIPR expression ([1]; replicate 17): 1.526
- Surface SNAP-GIPR expression ([1]; replicate 18): 1.463
- Surface SNAP-GIPR expression ([1]; replicate 19): 1.041
- Surface SNAP-GIPR expression ([1]; replicate 20): 1.229
- Surface SNAP-GIPR expression ([1]; replicate 21): 1.037
- Surface SNAP-GIPR expression ([1]; replicate 22): 1.307
- Surface SNAP-GIPR expression ([1]; replicate 23): 1.273
- Surface SNAP-GIPR expression ([1]; replicate 24): 1.448
- Surface SNAP-GIPR expression ([1]; replicate 25): 1.438
- Surface SNAP-GIPR expression ([1]; replicate 26): 1.564
- Surface SNAP-GIPR expression ([1]; replicate 27): 1.467
- Surface SNAP-GIPR expression ([1]; replicate 28): 1.252
- Surface SNAP-GIPR expression ([1]; replicate 29): 1.566
- Surface SNAP-GIPR expression ([1]; replicate 30): 1.334
- Surface SNAP-GIPR expression ([1]; replicate 31): 1.686
- Surface SNAP-GIPR expression ([1]; replicate 32): 1.692
- Surface SNAP-GIPR expression ([1]; replicate 33): 1.307
- Surface SNAP-GIPR expression ([1]; replicate 34): 1.109
- Surface SNAP-GIPR expression ([1]; replicate 35): 1.705
- Surface SNAP-GIPR expression ([1]; replicate 36): 1.374
- Surface SNAP-GIPR expression ([1]; replicate 37): 1.911
- Surface SNAP-GIPR expression ([1]; replicate 38): 1.787
- Surface SNAP-GIPR expression ([1]; replicate 39): 1.944
- Surface SNAP-GIPR expression ([1]; replicate 40): 1.676
- Surface SNAP-GIPR expression ([1]; replicate 41): 1.421
- Surface expression [2]: 1.428
- AD293 100 pM HTRF ([3]; AD293, 100 pM): 0.9665
- AD293 100 nM HTRF ([3]; AD293, 100 nM): 1.485
- INS-1 cAMP (100 nM) [4]: 1.507
- AD293 100 pM cADDis ([5]; AD293, 100 pM): 33.6456
- AD293 100 nM cADDis ([5]; AD293, 100 nM): 38.18
- +GIP internalisation (100 nM) ([6]; Fig 4E, GIP 100 nM): 0.9677
- GIP-specific internalisation (100 nM) ([6]; Fig 4E, GIP 100 nM): 0.2939
- Constitutive internalisation (100 nM) ([6]; Fig 4E): 0.6738
- Surface expression ([6]; Fig 4E): 1.687
- Internalisation, +GIP ([6]; Fig S4C, AD293): 57.3525
- Internalisation, GIP-only ([6]; Fig S4C, AD293): 17.4551
- Internalisation, Vehicle ([6]; Fig S4C, AD293): 39.8973
- +GIP internalisation (100 nM) ([7]; Fig 4G, GIP 100 nM): 0.7228
- GIP-specific internalisation (100 nM) ([7]; Fig 4G, GIP 100 nM): 0.1652
- Constitutive internalisation (100 nM) ([7]; Fig 4G): 0.5577
- Internalisation, +GIP ([7]; Fig S4C, INS-1): 48.6183
- Internalisation, GIP-only ([7]; Fig S4C, INS-1): 11.125
- Internalisation, Vehicle ([7]; Fig S4C, INS-1): 37.4933
